Assays:
[1] = target: T1, Aβ1–40 (Homo sapiens, UniProt P05067); assay: IM-MS analysis of complex formation with Aβ1–40; format: binding; conditions: alanine substituted variants of leucine enkephalin
[2] = target: T1, Aβ1–40; conditions: cited from earlier work
[3] = tested on: Aβ; conditions: incubated in excess with leucine enkephalin, compared with control; cited from earlier work

T1 sequence (P05067 672-711 limits assumed): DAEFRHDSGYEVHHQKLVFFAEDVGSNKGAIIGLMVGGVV

| Substance | Complex formation with Aβ1–40 (IM-MS signal) [1] | Stoichiometric ratios of Aβ:leucine enkephalin complexes [2] | Aβ fibrillation (TEM and gel) [3] |
| --- | --- | --- | --- |
| AGGFL: alanine substituted variant of leucine enkephalin (Leu-enkephalin; UniProt P01210 230-234, looked up, variant Y1A) | complexes formed | – | – |
| Leucine enkephalin acetate hydrate | – | 1:1 to 1:3, and from 2:1 to 2:3 | decreased Aβ fibrillation |
| YGAFL: alanine substituted variant of leucine enkephalin (Leu-enkephalin; UniProt P01210 230-234, looked up, variant G3A) | complexes formed | – | – |
| YGGAL: alanine substituted variant of leucine enkephalin (Leu-enkephalin; UniProt P01210 230-234, looked up, variant F4A) | no measureable complex signals | – | – |
| YGGFA: alanine substituted variant of leucine enkephalin (Leu-enkephalin; UniProt P01210 230-234, looked up, variant L5A) | no measureable complex signals | – | – |
